Here are results for one substance from patent US20240115729A1, “COMPOSITIONS AND METHODS FOR TARGETED ANTIFIBROTIC THERAPY IN CHRONIC PANCREATITIS” (University of Virginia Patent Foundation, priority 2021, published 2024).

Among the targets are CD31 (mouse) (UniProt Q08481); F4/80 (mouse) (UniProt Q61549); collagen IIIa (mouse) (UniProt P08121).
What all share (assay): IF colocalization (JACoP) of VT680 phage with marker, CP mouse pancreas sections
Assay [1] addresses carboxypeptidase A1 (CPA1) (mouse) (UniProt Q7TPZ8).
The target in assay [2] is cytokeratin 7 (CK-7) (mouse) (UniProt Q9DCV7).
UniProt Q9DCV7, sequence (Q9DCV7 2-457): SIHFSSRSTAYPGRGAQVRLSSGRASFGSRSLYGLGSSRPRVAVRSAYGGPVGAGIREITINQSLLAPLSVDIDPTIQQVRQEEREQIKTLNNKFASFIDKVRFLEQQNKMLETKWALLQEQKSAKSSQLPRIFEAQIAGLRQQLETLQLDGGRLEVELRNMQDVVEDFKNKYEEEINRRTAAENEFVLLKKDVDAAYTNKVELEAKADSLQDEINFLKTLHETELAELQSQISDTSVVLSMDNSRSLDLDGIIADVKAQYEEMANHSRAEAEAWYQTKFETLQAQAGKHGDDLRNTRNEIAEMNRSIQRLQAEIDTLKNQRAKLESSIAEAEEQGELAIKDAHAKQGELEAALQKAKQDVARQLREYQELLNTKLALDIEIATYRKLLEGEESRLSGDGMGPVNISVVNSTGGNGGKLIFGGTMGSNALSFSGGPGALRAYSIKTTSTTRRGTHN

UniProt Q61549, sequence (Q61549 28-931): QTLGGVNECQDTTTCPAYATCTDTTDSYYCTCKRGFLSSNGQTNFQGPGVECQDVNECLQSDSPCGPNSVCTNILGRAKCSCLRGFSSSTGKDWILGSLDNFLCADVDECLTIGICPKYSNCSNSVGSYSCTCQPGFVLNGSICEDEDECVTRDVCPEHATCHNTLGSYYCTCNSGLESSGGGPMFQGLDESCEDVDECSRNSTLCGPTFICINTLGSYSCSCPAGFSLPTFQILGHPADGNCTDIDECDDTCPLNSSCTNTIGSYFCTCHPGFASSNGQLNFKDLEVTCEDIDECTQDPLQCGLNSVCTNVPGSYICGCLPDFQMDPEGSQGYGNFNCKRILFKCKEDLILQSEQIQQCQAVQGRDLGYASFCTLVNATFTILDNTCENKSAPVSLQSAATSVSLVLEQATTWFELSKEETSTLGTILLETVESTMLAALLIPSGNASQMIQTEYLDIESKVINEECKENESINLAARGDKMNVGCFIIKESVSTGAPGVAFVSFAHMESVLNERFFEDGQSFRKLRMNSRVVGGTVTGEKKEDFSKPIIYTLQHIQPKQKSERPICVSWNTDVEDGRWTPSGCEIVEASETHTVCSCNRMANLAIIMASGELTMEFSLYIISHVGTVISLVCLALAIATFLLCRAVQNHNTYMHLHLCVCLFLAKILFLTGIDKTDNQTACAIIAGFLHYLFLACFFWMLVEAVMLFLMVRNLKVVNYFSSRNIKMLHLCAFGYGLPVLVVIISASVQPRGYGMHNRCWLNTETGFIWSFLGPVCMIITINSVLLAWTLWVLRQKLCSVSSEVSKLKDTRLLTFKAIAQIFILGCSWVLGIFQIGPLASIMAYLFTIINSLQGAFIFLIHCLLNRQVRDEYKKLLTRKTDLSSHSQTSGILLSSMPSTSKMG
UniProt P08121, sequence (P08121 155-1219): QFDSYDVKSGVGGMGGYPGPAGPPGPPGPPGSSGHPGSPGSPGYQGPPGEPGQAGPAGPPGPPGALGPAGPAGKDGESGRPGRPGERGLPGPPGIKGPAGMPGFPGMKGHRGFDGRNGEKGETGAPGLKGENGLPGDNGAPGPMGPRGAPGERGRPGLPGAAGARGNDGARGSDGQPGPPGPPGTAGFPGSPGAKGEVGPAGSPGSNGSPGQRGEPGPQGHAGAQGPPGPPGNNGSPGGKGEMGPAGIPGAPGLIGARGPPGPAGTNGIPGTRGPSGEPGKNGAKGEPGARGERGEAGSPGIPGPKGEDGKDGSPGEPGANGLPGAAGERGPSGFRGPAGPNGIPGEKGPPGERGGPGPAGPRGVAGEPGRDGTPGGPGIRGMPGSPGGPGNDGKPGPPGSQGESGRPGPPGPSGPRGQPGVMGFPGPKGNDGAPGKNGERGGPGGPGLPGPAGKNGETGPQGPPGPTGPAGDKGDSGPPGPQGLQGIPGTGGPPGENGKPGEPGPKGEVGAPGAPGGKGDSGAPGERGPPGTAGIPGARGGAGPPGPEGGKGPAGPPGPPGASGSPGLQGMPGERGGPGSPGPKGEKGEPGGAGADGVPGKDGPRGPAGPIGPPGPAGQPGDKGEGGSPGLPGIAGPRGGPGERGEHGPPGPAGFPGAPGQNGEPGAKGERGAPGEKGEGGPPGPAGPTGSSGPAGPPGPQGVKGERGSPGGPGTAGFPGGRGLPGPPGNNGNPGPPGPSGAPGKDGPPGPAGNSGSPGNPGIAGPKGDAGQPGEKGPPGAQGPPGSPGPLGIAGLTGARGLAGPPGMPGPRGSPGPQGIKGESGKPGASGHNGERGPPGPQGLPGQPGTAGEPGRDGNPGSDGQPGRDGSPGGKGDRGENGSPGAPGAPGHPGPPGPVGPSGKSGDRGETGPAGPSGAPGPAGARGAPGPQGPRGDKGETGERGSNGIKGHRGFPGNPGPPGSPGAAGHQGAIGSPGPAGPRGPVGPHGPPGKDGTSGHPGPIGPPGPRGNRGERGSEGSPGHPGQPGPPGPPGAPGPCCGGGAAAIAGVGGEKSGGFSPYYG
UniProt Q08481, sequence (Q08481 18-727): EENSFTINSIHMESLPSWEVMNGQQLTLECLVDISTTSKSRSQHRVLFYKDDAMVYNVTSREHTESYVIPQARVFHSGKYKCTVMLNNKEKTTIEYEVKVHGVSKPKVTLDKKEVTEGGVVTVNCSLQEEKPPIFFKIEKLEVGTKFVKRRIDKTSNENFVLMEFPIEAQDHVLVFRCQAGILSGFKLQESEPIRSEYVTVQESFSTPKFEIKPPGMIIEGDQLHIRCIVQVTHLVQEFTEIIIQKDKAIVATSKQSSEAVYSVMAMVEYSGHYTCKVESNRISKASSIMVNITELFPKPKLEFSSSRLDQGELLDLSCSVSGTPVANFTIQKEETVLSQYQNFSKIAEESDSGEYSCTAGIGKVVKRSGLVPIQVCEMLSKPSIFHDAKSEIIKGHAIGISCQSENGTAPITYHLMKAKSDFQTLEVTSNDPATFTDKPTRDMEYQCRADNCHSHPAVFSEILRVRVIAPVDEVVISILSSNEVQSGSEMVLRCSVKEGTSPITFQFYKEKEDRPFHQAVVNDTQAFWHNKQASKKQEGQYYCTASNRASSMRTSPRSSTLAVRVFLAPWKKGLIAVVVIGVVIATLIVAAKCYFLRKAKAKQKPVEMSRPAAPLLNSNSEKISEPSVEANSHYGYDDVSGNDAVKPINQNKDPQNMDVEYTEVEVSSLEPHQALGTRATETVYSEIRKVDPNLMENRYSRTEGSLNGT
UniProt Q7TPZ8, sequence (Q7TPZ8 111-419): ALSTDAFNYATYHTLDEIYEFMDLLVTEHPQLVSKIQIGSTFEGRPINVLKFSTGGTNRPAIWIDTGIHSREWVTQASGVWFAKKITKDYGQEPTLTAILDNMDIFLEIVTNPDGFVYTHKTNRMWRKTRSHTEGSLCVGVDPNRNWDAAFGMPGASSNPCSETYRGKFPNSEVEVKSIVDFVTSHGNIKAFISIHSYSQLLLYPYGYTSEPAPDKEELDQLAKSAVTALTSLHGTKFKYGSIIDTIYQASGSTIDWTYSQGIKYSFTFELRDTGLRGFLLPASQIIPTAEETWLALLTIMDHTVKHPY

For the substance “SLTNSSF (SEQ ID NO: 27) phage clone (peptide)”, the mean Manders' correlation coefficient (MCC), fraction of phage overlapping cell marker with CD31 (mouse) turned out to be 0.13; in the assay with F4/80 (mouse) it was 0.8; in assay [1], 0.22; with collagen IIIa (mouse), 0.33; in assay [2], 0.11.
